The text below walks through data of patent US20200199554A1 (KATHOLIEKE UNIVERSITEIT LEUVEN, published 2020).

The series deals with the molecule itself. Kind of series: zymogram (SDS-PAGE gel with embedded fish sperm DNA, renatured); self-association, dimer band. On the procedure:
In addition, the nuclease activity was confirmed by zymography. […] Then, the gel was washed three times for 5 min in mQ and incubated for 48 h in zymogram renaturation buffer (150 mM NaH₂PO₄ pH 7, 10 mM MgCl₂ and 0.1% Triton X-100), which allowed the proteins to refold to their native state. Finally, the gel was stained for 20 min in 0.5 μg/ml ethidium bromide and destained for 20 min in the zymogram renaturation buffer. After staining with ethidium bromide, the enzymes with nuclease activity were visible as non-fluorescent bands using an UV transilluminator. The impact of boiling on the renaturing capacity of Gp5 was tested by loading both preboiled (10 min, 95° C.) and non-preboiled samples. Clear bands were observed around 8-9 kDa, indicating the nuclease activity of Gp5 (MW=8.5 KDa) (for details see FIG. 4). […] Despite the small fraction of Gp5 that is present as a dimer on the zymogram, this dimer:monomer ratio is not necessarily present in vivo. After all, SDS is an anionic surfactant, negatively charging proteins to allow a separation based on the molecular weight in SDS-PAGE. This step generally involves also the disintegration of dimers into monomers. The removal of SDS in the renaturation step, might allow Gp5 to reassociate into dimers.
Clear bands were observed around 8-9 kDa in all samples, indicating the presence of Gp5. […] The protein concentrations are shown on the top.

B1: LUZ19_Gp5 (untagged, purified) (enzyme)
chain: MSSRDPYRIGHRVGLVNYSDRYLGADAAGTKGTIEAITRPSRCMTIYHVRCERTLRLIEAEARNVRFIRQRAER
notes: A few linker residues may remain at the N-terminus; also called Phage LUZ19 gp5; miniDNase
Turning to B1, the binding result is given as “binds”.
